# Reference: US11673916B2, “Neuroprotective peptides and methods of their use” (University of Pittsburgh—Of the Commonwealth System of …, priority 2020, dated 2023)
# Molecular target: T1, Kv2.1 surface clusters (Rattus norvegicus, UniProt P15387)
# T1 construct: expressed in transfected cells; host or cells: primary rat cortical neurons (E16-17 Sprague-Dawley), Lipofectamine 2000
# T1 sequence (P15387 1-857): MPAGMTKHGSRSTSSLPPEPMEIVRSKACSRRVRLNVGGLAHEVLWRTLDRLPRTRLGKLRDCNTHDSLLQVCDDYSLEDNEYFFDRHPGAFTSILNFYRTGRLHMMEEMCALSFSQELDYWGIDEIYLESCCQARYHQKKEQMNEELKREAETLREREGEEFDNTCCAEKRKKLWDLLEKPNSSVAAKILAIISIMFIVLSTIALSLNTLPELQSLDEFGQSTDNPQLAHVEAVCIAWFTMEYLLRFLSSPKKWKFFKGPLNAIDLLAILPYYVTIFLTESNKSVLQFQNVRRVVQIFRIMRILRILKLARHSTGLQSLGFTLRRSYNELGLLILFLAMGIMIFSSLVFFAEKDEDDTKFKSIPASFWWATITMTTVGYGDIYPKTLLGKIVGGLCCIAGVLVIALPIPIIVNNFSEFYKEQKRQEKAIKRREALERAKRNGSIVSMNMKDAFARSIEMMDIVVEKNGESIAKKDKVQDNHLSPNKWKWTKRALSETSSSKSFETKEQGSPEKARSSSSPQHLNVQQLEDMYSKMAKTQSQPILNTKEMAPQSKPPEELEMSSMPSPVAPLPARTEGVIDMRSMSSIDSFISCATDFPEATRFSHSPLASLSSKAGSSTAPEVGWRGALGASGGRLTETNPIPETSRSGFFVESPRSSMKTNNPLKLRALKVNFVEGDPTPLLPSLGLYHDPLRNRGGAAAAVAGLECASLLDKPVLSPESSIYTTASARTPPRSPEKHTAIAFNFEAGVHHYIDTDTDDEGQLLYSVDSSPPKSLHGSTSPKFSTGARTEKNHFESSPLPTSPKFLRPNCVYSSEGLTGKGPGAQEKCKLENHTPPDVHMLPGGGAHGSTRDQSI
# Test: Kv2.1 surface cluster density in live Kv2.1-GFP-transfected cortical neurons treated with TAT-linked peptides
# Assay type: cell-based
# Details: 10 μM, two-hour treatment, mean±SEM (FIG. 12B)
# Experimental: In vitro experiments utilized primary cortical neuronal cultures prepared from embryonic day 16-17 Sprague-Dawley rats of either sex in a protocol described previously (McCord et al., J Physiol (Lond). 592: 3511-3521, 2014). Timed-pregnant rats (Charles River Laboratories, Wilmington, Mass.) were sacrificed by CO2 inhalation. Embryonic cortices were dissociated with trypsin (0.6 mg/mL) and cells plated in sterile 6-well plates on poly-L-ornithine-coated glass coverslips at a density of 670,000 cells per well. Cytosine arabinoside (1-2 μM) was utilized to inhibit non-neuronal proliferation on day 14 in vitro (DIV); cultures were utilized at 21-25 DIV.
# ; Invitrogen, Carlsbad, Calif.). […]
# To analyze Kv2.1 distribution in live primary cortical neurons, cells were transfected with both a tdTomato construct and a GFP-tagged Kv2.1 construct (O'Connell, et al., J Neurosci. 26: 9609-9618, 2006) and imaged on a Nikon A1+ confocal microscope (Nikon, Tokyo, Japan). […] For live images of transfected neurons, object count parameters were customized to define a Kv2.1 cluster as an area of high intensity GFP fluorescence (compared to background), measuring 0.05 μm^2 or larger (Schulien et al., J Physiol (Lond). 594: 2647-2659, 2016). Kv2.1 cluster density was calculated by normalizing the number of Kv2.1 clusters counted to the somatic area of each neuron (#Kv2.1 clusters/μm^2). […]
row,Sequence,mean Kv2.1 surface cluster density
1,"YGRKKRRQRRRAIDAFTA [TAT-DP-2A, TAT-linked serine to alanine mutant of DP-2]",0.14±0.02 #Kv2.1 clusters/μm^2 of neuronal soma
2,"YGRKKRRQRRRDIDDFTD [TAT-DP-2D, TAT-linked peptide containing serine to aspartate mutations]",0.08±0.02 #Kv2.1 clusters/μm^2 of neuronal soma
